Experimental data taken from US20140348819A1, “Methods of Treating Cancer” (Dana-Farber Cancer Institute, Inc., priority 2011, published 2014).

System: six V600E BRAF melanoma cell lines
Experiment: Screening of recombinant RTK ligands for ability to confer resistance to BRAFi (PLX4720) or MEKi (PD184352) (Table 4)
Type: cell-based, human
Parameters: ability of recombinant RTK ligand to confer resistance / ability of recombinant RTK ligand to confer resistance (screening value): scale not given here
In short: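 Resistance to BRAFi (PLX4720) or MEKi (PD184352) was tested in six V600E BRAF melanoma lines given one of 22 recombinant RTK ligands. For a subset of RTKs, activation was checked by high-throughput tyrosine kinase phosphorylation profiling and western blot.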

B1: GDNF (protein, UniProt P39905 78-211, looked up)
Glial cell line-derived …: SPDKQMAVLPRRERNRQAAAANPENSRGKGRRGQRGKNRGCVLTAIHLNVTDLGLGYETKEELIFRYCSGSCDAAETTYDKILKNLSRNRRLVSDKVGQACCRPIAFDDDLSFLDDNLVYHILRKHSAKRCGCI
- ability of recombinant RTK ligand to confer resistance (A2058, PD184352 - 1 uM, ligand 0.4 ng/ml): 0.98
- ability of recombinant RTK ligand to confer resistance (A2058, PD184352 - 1 uM, ligand 1.6 ng/ml): 1.03
- ability of recombinant RTK ligand to confer resistance (A2058, PD184352 - 1 uM, ligand 6.25 ng/ml): 1.00
- ability of recombinant RTK ligand to confer resistance (A2058, PD184352 - 1 uM, ligand 25 ng/ml): 0.93
- ability of recombinant RTK ligand to confer resistance (A2058, PD184352 - 1 uM, ligand 100 ng/ml): 0.92
- ability of recombinant RTK ligand to confer resistance (A2058, PLX4720 - 2 uM, ligand 0.4 ng/ml): 0.97
- ability of recombinant RTK ligand to confer resistance (A2058, PLX4720 - 2 uM, ligand 1.6 ng/ml): 0.97
- ability of recombinant RTK ligand to confer resistance (A2058, PLX4720 - 2 uM, ligand 6.25 ng/ml): 0.98
- ability of recombinant RTK ligand to confer resistance (A2058, PLX4720 - 2 uM, ligand 25 ng/ml): 0.94
- ability of recombinant RTK ligand to confer resistance (A2058, PLX4720 - 2 uM, ligand 100 ng/ml): 0.97
- ability of recombinant RTK ligand to confer resistance (C32, PD184352 - 1 uM, ligand 0.4 ng/ml): 1.08
- ability of recombinant RTK ligand to confer resistance (C32, PD184352 - 1 uM, ligand 1.6 ng/ml): 1.13
- ability of recombinant RTK ligand to confer resistance (C32, PD184352 - 1 uM, ligand 6.25 ng/ml): 1.03
- ability of recombinant RTK ligand to confer resistance (C32, PD184352 - 1 uM, ligand 25 ng/ml): 0.96
- ability of recombinant RTK ligand to confer resistance (C32, PD184352 - 1 uM, ligand 100 ng/ml): 0.94
- ability of recombinant RTK ligand to confer resistance (C32, PLX4720 - 2 uM, ligand 0.4 ng/ml): 1.04
- ability of recombinant RTK ligand to confer resistance (C32, PLX4720 - 2 uM, ligand 1.6 ng/ml): 1.11
- ability of recombinant RTK ligand to confer resistance (C32, PLX4720 - 2 uM, ligand 6.25 ng/ml): 1.03
- ability of recombinant RTK ligand to confer resistance (C32, PLX4720 - 2 uM, ligand 25 ng/ml): 0.91
- ability of recombinant RTK ligand to confer resistance (C32, PLX4720 - 2 uM, ligand 100 ng/ml): 0.94
- ability of recombinant RTK ligand to confer resistance (Colo 829, PD184352 - 1 uM, ligand 0.4 ng/ml): 0.95
- ability of recombinant RTK ligand to confer resistance (Colo 829, PD184352 - 1 uM, ligand 1.6 ng/ml): 0.96
- ability of recombinant RTK ligand to confer resistance (Colo 829, PD184352 - 1 uM, ligand 6.25 ng/ml): 0.96
- ability of recombinant RTK ligand to confer resistance (Colo 829, PD184352 - 1 uM, ligand 25 ng/ml): 1.07
- ability of recombinant RTK ligand to confer resistance (Colo 829, PD184352 - 1 uM, ligand 100 ng/ml): 0.98
- ability of recombinant RTK ligand to confer resistance (Colo 829, PLX4720 - 2 uM, ligand 0.4 ng/ml): 1.00
- ability of recombinant RTK ligand to confer resistance (Colo 829, PLX4720 - 2 uM, ligand 1.6 ng/ml): 1.00
- ability of recombinant RTK ligand to confer resistance (Colo 829, PLX4720 - 2 uM, ligand 6.25 ng/ml): 0.96
- ability of recombinant RTK ligand to confer resistance (Colo 829, PLX4720 - 2 uM, ligand 25 ng/ml): 1.09
- ability of recombinant RTK ligand to confer resistance (Colo 829, PLX4720 - 2 uM, ligand 100 ng/ml): 1.00
- ability of recombinant RTK ligand to confer resistance (G-361, PD184352 - 1 uM, ligand 0.4 ng/ml): 1.00
- ability of recombinant RTK ligand to confer resistance (G-361, PD184352 - 1 uM, ligand 1.6 ng/ml): 0.94
- ability of recombinant RTK ligand to confer resistance (G-361, PD184352 - 1 uM, ligand 6.25 ng/ml): 1.04
- ability of recombinant RTK ligand to confer resistance (G-361, PD184352 - 1 uM, ligand 25 ng/ml): 0.92
- ability of recombinant RTK ligand to confer resistance (G-361, PD184352 - 1 uM, ligand 100 ng/ml): 0.95
- ability of recombinant RTK ligand to confer resistance (G-361, PLX4720 - 2 uM, ligand 0.4 ng/ml): 0.94
- ability of recombinant RTK ligand to confer resistance (G-361, PLX4720 - 2 uM, ligand 1.6 ng/ml): 0.94
- ability of recombinant RTK ligand to confer resistance (G-361, PLX4720 - 2 uM, ligand 6.25 ng/ml): 0.93
- ability of recombinant RTK ligand to confer resistance (G-361, PLX4720 - 2 uM, ligand 25 ng/ml): 0.87
- ability of recombinant RTK ligand to confer resistance (G-361, PLX4720 - 2 uM, ligand 100 ng/ml): 0.79
- ability of recombinant RTK ligand to confer resistance (SK-MEL-5, PD184352 - 1 uM, ligand 0.4 ng/ml): 0.99
- ability of recombinant RTK ligand to confer resistance (SK-MEL-5, PD184352 - 1 uM, ligand 1.6 ng/ml): 0.89
- ability of recombinant RTK ligand to confer resistance (SK-MEL-5, PD184352 - 1 uM, ligand 6.25 ng/ml): 1.03
- ability of recombinant RTK ligand to confer resistance (SK-MEL-5, PD184352 - 1 uM, ligand 25 ng/ml): 0.94
- ability of recombinant RTK ligand to confer resistance (SK-MEL-5, PD184352 - 1 uM, ligand 100 ng/ml): 0.93
- ability of recombinant RTK ligand to confer resistance (SK-MEL-5, PLX4720 - 2 uM, ligand 0.4 ng/ml): 1.04
- ability of recombinant RTK ligand to confer resistance (SK-MEL-5, PLX4720 - 2 uM, ligand 1.6 ng/ml): 0.71
- ability of recombinant RTK ligand to confer resistance (SK-MEL-5, PLX4720 - 2 uM, ligand 6.25 ng/ml): 1.00
- ability of recombinant RTK ligand to confer resistance (SK-MEL-5, PLX4720 - 2 uM, ligand 25 ng/ml): 1.01
- ability of recombinant RTK ligand to confer resistance (SK-MEL-5, PLX4720 - 2 uM, ligand 100 ng/ml): 1.08
- ability of recombinant RTK ligand to confer resistance (SK-MEL-28, PD184352 - 1 uM, ligand 0.4 ng/ml): 0.99
- ability of recombinant RTK ligand to confer resistance (SK-MEL-28, PD184352 - 1 uM, ligand 1.6 ng/ml): 1.03
- ability of recombinant RTK ligand to confer resistance (SK-MEL-28, PD184352 - 1 uM, ligand 6.25 ng/ml): 1.02
- ability of recombinant RTK ligand to confer resistance (SK-MEL-28, PD184352 - 1 uM, ligand 25 ng/ml): 0.92
- ability of recombinant RTK ligand to confer resistance (SK-MEL-28, PD184352 - 1 uM, ligand 100 ng/ml): 0.96
- ability of recombinant RTK ligand to confer resistance (SK-MEL-28, PLX4720 - 2 uM, ligand 0.4 ng/ml): 1.04
- ability of recombinant RTK ligand to confer resistance (SK-MEL-28, PLX4720 - 2 uM, ligand 1.6 ng/ml): 0.91
- ability of recombinant RTK ligand to confer resistance (SK-MEL-28, PLX4720 - 2 uM, ligand 6.25 ng/ml): 1.05
- ability of recombinant RTK ligand to confer resistance (SK-MEL-28, PLX4720 - 2 uM, ligand 25 ng/ml): 0.97
- ability of recombinant RTK ligand to confer resistance (SK-MEL-28, PLX4720 - 2 uM, ligand 100 ng/ml): 1.01
